Test results as given in ChEMBL document CHEMBL3525919, “Potent inhibition of human sulfotransferase 1A1 by 17α-ethinylestradiol: role of 3'-phosphoadenosine 5'-phosphosulfate binding and structural rearrangements in regulating inhibition and activity” (Drug Metab Dispos, 2012).

How the values were obtained:
[1] = substrate: C[C@]12CC[C@@H]3c4ccc(O)cc4CC[C@H]3[C@@H]1CC[C@@H]2O; assay: Activity of SULT1E1 (unknown origin); format: ADME, Homo sapiens
[2] = substrate: C#C[C@]1(O)CC[C@H]2[C@@H]3CCc4cc(O)ccc4[C@H]3CC[C@@]21C; assay: Activity of human SULT1A1 expressed in Escherichia coli at 6 uM by Michaelis-Menten equation analysis in presence of PAPS; format: ADME
[3] = substrate: C[C@]12CC[C@@H]3c4ccc(O)cc4CC[C@H]3[C@@H]1CC[C@@H]2O; assay: Activity of human SULT1A1 expressed in Escherichia coli at 20 uM by Michaelis-Menten equation analysis in presence of PAPS; format: ADME

Row | Protein | Km [1] [µM] | Km [2] [µM] | Km [3] [µM]
1 | Sulfotransferase 1E1 (Homo sapiens) (protein) MNSELDYYEKFEEVHGILMYKDFVKYWDNVEAFQARPDDLVIATYPKSGTTWVSEIVYMIYKEGDVEKCKEDVIFNRIPFLECRKENLMNGVKQLDEMNSPRIVKTHLPPELLPASFWEKDCKIIYLCRNAKDVAVSFYYFFLMVAGHPNPGSFPEFVEKFMQGQVPYGSWYKHVKSWWEKGKSPRVLFLFYEDLKEDIRKEVIKLIHFLERKPSEELVDRIIHHTSFQEMKNNPSTNYTTLPDEIMNQKLSPFMRKGITGDWKNHFTVALNEKFDKHYEQQMKESTLKFRTEI | 0.004 |  | 
2 | Sulfotransferase 1A1 (Homo sapiens) (protein) MELIQDTSRPPLEYVKGVPLIKYFAEALGPLQSFQARPDDLLISTYPKSGTTWVSQILDMIYQGGDLEKCHRAPIFMRVPFLEFKAPGIPSGMETLKDTPAPRLLKTHLPLALLPQTLLDQKVKVVYVARNAKDVAVSYYHFYHMAKVHPEPGTWDSFLEKFMVGEVSYGSWYQHVQEWWELSRTHPVLYLFYEDMKENPKREIQKILEFVGRSLPEETVDFVVQHTSFKEMKKNPMTNYTTVPQEFMDHSISPFMRKGMAGDWKTTFTVAQNERFDADYAEKMAGCSLSFRSEL |  | 0.45 | 0.36
